Test results published in PMC10874388, “Cyclic peptides discriminate BCL-2 and its clinical mutants from BCL-XL by engaging a single-residue discrepancy” (Nature Communications, 2024).
Starred links: 1 amine or outer side, 2 acyl side, 3 side chain; linkers in the order of their positions; H or OH if unused. Positions of bridges follow the written chain, without caps; N, C: chain ends. Residues, ends and D or L forms follow the SMILES beside them. Primed or numbered codes have the meaning given here. No end group written: not given here. *: point of attachment. X1 = O=C(C[*:2])NCCNC(=O)c1ccc(C2=N[C@H](C(=O)[*:1])CS2)cc1; FITC = O=C1OC2(c3ccc(O)cc3Oc3cc(O)ccc32)c2ccc(NC(=S)*)cc21; cADT = 2-aryl-4,5-dihydrothiazole (ADT) linker; FITC′ = fluorescein isothiocyanate; ADT (ClAc-3) = not defined here

T1: cp2-F (linker 1-11 via ADT (ClAc-3) (inferred); reading uncertain; also: modified by ClAc-3, printed as CPIRYEWDEFCG{K(FITC)})
T1 construct: also called cp2-FITC; source: synthetic peptide
T1 peptide: CPIRYEWDEFCGK(FITC′)

T2: BCL-w (residues 6-152) (human, UniProt Q92843 6-152, biotin (biotinylated for SPR; site not stated))
T2 construct: source: E. coli BL21 (DE3), purified (Ni-NTA, Superdex 75, RESOURCE Q, Superdex 200)
T2 sequence (looked up): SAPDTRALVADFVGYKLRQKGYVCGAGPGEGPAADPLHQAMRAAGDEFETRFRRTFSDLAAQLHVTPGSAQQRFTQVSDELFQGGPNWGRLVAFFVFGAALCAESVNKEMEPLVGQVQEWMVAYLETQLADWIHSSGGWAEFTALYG

B1: chimeric human BCL-2 (residues 1-50 and 92-207, residues 35-50 replaced with residues 33-48 of BCL-XL) (domain or fragment, UniProt P10415 1-34, looked up)
chain: MAHAGRTGYDNREIVMKYIHYKLSQRGYEWDAGDNRTEAPEGTESEMETPVVHLTLRQAGDDFSRRYRRDFAEMSSQLHLTPFTARGRFATVVEELFRDGVNWGRIVAFFEFGGVMCVESVNREMSPLVDNIALWMTEYLNRHLHTWIQDNGGWDAFVELYGPSMR
modifications: biotin (biotinylated for SPR; site not stated)
notes: BCL-2, human, residues 1-34 of the chimera (internal loop 51-91 removed; residues 35-50 replaced with residues 33-48 of BCL-XL); BCL-XL, human, residues 33-48, in place of BCL-2 residues 35-50; BCL-2, human, residues 92-207; Biotinylated for SPR; used as such for crystals and fluorescence polarisation; also called BCL-2 WT; source: E. coli BL21 (DE3), purified (Ni-NTA, Superdex 75, RESOURCE Q, …)
B2: cp2 (peptide)
peptide: CPIRYEWDEFC
modifications: linker 1-11 via cADT (inferred)
notes: cyclic peptide from the second phage library CPXRYXWDXXC screened against BCL-2; they agree with I3, E6, E9 and F10 named in the text
B3: cp3 (peptide)
peptide: CPIRYPWDVEC
modifications: linker 1-11 via cADT (inferred)
notes: cyclic peptide from the second phage library CPXRYXWDXXC screened against BCL-XL; they agree with P6, V9 and E10 named in the text

What was measured:
[1] = test system: El4 cells; test: Cell viability assay (CellTiter-Glo), El4; assay type: cell-based; conditions: Mus musculus, 48 h treatment, NO = no inhibition detected
Procedure: (§1) The cell lines Jurkat (TIB-152), El4 (TIB-39), Daudi (ccl-213), RS4:11 (crl-1873), A549 (ccl-185), HepG2 (hb-8065) and PANC-1 (crl-1469) were purchased from ATCC (American Type Culture Collection), and MGC-803 (C6582) was purchased from Beyotime (https://www.beyotime.com/product/C6582.htm). […] Daudi and RS4:11 cells were cultured in RPMI-1640 medium (HyClone, SH30809.01) and 10% FBS (Gibco, 10099-141), whereas HepG2, MGC-803 and PANC-1 cells were cultured in MDEM (HyClone, SH30243.01). Cells were maintained at 37 °C under a humidified, 5% (v/v) CO2-containing atmosphere.
(§2) Cell viability was measured using CellTiter-Glo® 2.0 Reagent (Promega, G9242). […] After different inhibitors were added into serum-free medium and cultured for 4 h (RS4:11 for 6 h), FBS were supplemented to 10% and then incubated totally for 24 h or 48 h. Finally, the IC50 values were calculated based on measurements using a microplate reader (Thermo, Varioskan LUX). Statistical analysis was performed using software GraphPad Prism 7.0.

[2] = test system: RS4:11 cells; test: Cell viability assay (CellTiter-Glo), RS4:11; assay type: cell-based; conditions: Homo sapiens, RS4-11; 48 h treatment, CellTiter-Glo; small-molecule inhibitors, cells marked (nM)
Method in brief: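 Compounds added in serum-free medium for 4 h (RS4:11: 6 h), then FBS brought to 10% and incubation continued to 24 h or 48 h total at 37 °C, 5% CO2. Viability by CellTiter-Glo 2.0 luminescence; IC50 calculated.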

[3] = parameters: method as in PMID 23410971; conditions: attributed to binding to BCL-XL; cited from earlier work
[4] = test system: Jurkat cells; test: Cell viability assay (CellTiter-Glo), Jurkat; assay type: cell-based; conditions: Homo sapiens, 48 h treatment, CellTiter-Glo
Procedure: as §1, §2

[5] = test system: Daudi cells; test: Cell viability assay (CellTiter-Glo), Daudi; assay type: cell-based; conditions: Homo sapiens, Daudi, 48 h, 48 h treatment, CellTiter-Glo
Procedure: as §1, §2

[6] = test system: Jurkat cells; assay type: cell-based
Procedure: Supplementary Figure 10 Functional mechanism of CPs. a. IC50 values of venetoclax against A549, MGC-803 and PANC-1 cells, measured after 48 h treatment by a CellTiter-Glo assay and calculated using Prism 7.0 by a nonlinear-fit method. Data are presented as mean ± s.d.; n= 6 biological replicates. b. Western blot detecting the protein expression levels of BCL-2 and BCL-XL in A549, MGC-803, Daudi and Jurkat cells. c-d. Western blot detecting the protein expression levels of BCL-2 and BCL-XL in El4 cells (c) and RS4:11 cells (d). e. Western blot verifying the protein expression levels of exogenous BCL-2 in normal A549 cells (control) and those stably overexpressing BCL-2 WT or G101V mutant. f. qPCR results testing the overexpression of BCL-2 WT or G101V mutant in A549 stable cells. Data are presented as mean ± s.d.; n= 6 biological replicates; one-way ANOVA with Dunnett’s multiple comparisons test. g. Cell viability assay of Jurkat cells after 48 h treatment with DMSO, cp1-FITC, cp6-FITC, respectively. P1 represents the percentage of active cells. h. FITC signal tests after 48 h treatment with DMSO, cp1-FITC, cp6-FITC, respectively. P4 represents cells with the FITC signal. i-k. Structures of cp1-TAT, cp2-TAT and cp3-TAT. […]

[7] = molecular target: T1, cp2-F; test: fluorescence polarisation; direct binding: 20 nM FITC-labelled peptide, protein 60-1000 nM, 1x PBS pH 7.4, room temperature, 10 min; conditions: both partners purified
[8] = molecular target: T2, BCL-w (residues 6-152); test: SPR; Biacore T200; biotinylated proteins immobilised on a CAP sensor chip; peptides flowed in multiple cycles (25-12800 nM, depending on the peptides) at 30 uL/min; 10 mM PBS, 50 uM EDTA, 0.05% Tween-20, 25 °C; affinity fitting, 1:1 binding model; conditions: both partners purified
[9] = molecular target: T3, human BCL-XL (residues 1-210, with 27-81 and 210-233 removed) (human, UniProt Q07817-1 1-209, 27-81 removed, biotin (biotinylated for SPR; site not stated)); test: as above; conditions: both partners purified
T3 construct: BCL-XL, human; printed as residues 1-210, with 27-81 and 210-233 removed (so the last residue is 209 or 210); source: E. coli BL21 (DE3), purified (Ni-NTA, Superdex 75, RESOURCE Q, Superdex 200)

[10] = molecular target: T4, BCL-2-D103Y (human, UniProt P10415 1-34; Q07817 33-48; P10415 92-207, D103Y, biotin (biotinylated for SPR; site not stated)); test: as above; conditions: both partners purified
T4 construct: BCL-2, human, residues 1-34 of the chimera, as m6; BCL-XL, human, residues 33-48, in place of BCL-2 residues 35-50; BCL-2, human, residues 92-207; Chimera m6 with the clinical mutation D103Y; source: E. coli BL21 (DE3), purified (Ni-NTA, Superdex 75, RESOURCE Q, Superdex 200)

[11] = molecular target: T5, BCL-2-F104L (human, UniProt P10415 1-34; Q07817 33-48; P10415 92-207, F104L, biotin (biotinylated for SPR; site not stated)); test: as above; conditions: both partners purified
T5 construct: BCL-2, human, residues 1-34 of the chimera, as m6; BCL-XL, human, residues 33-48, in place of BCL-2 residues 35-50; BCL-2, human, residues 92-207; Chimera m6 with F104L, a drug-resistant mutation found in a mouse model (residue number of the human protein); also called BCL-2 F104L mutant; source: E. coli BL21 (DE3), purified (Ni-NTA, Superdex 75, RESOURCE Q, Superdex 200)

[12] = molecular target: T6, BCL-2-G101V (human, UniProt P10415 1-34; Q07817 33-48; P10415 92-207, G101V, biotin (biotinylated for SPR; site not stated)); test: as above; conditions: both partners purified
T6 construct: BCL-2, human, residues 1-34 of the chimera, as m6; BCL-XL, human, residues 33-48, in place of BCL-2 residues 35-50; BCL-2, human, residues 92-207; Chimera m6 with the venetoclax-resistant clinical mutation G101V; also called BCL-2 G101V mutant; source: E. coli BL21 (DE3), purified (Ni-NTA, Superdex 75, RESOURCE Q, Superdex 200)

[13] = molecular target: B1; test: as above; conditions: both partners purified
[14] = molecular target: T7, BCL-2-D111A (human, UniProt P10415 1-34; Q07817 33-48; P10415 92-207, D111A, biotin (biotinylated for SPR; site not stated)); test: as above; conditions: both partners purified
T7 construct: BCL-2, human, residues 1-34 of the chimera, as m6; BCL-XL, human, residues 33-48, in place of BCL-2 residues 35-50; BCL-2, human, residues 92-207; Chimera m6 with the point mutation D111A made by mutagenic PCR; also called BCL-2 D111A mutant; source: E. coli BL21 (DE3), purified (Ni-NTA, Superdex 75, RESOURCE Q, Superdex 200)
T7 sequence (P10415 other isoform, or with tags, fused parts or gaps D111A | D111A | D111A D111A): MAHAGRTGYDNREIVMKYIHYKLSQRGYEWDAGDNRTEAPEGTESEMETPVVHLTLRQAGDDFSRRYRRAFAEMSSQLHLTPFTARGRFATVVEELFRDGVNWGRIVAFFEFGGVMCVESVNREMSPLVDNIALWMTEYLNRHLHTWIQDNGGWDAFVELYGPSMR

T4 sequence (P10415 other isoform, or with tags, fused parts or gaps D103Y | D103Y | D103Y D103Y): as the sequence (P10415 other isoform, or with tags, fused parts or gaps D111A | D111A | D111A D111A) above, with D62Y, A70D counted along it
T3 sequence (Q07817 other isoform, or with tags, fused parts or gaps 27-81 removed | 27-81 removed): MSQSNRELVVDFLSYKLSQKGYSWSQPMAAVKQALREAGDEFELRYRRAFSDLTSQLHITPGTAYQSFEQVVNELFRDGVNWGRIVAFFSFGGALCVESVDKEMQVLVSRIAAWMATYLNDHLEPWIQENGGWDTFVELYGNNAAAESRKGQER
T6 sequence (P10415 other isoform, or with tags, fused parts or gaps G101V | G101V | G101V G101V): as the sequence (P10415 other isoform, or with tags, fused parts or gaps D111A | D111A | D111A D111A) above, with G60V, A70D counted along it

| Molecule | Penetration efficiency (FITC signal in cells) [6] | Kd [8] [nM] | Kd [9] [nM] | Kd [10] [nM] | Kd [11] [nM] | Kd [12] [nM] | Kd [13] [nM] | Kd [14] [nM] | also measured |
| --- | --- | --- | --- | --- | --- | --- | --- | --- | --- |
| CC1(C)CCC(c2ccc(Cl)cc2)=C(CN2CCN(c3ccc(C(=O)NS(=O)(=O)c4ccc(N[C@H](CCN5CCOCC5)CSc5ccccc5)c(S(=O)(=O)C(F)(F)F)c4)cc3)CC2)C1 [ABT-263, navitoclax] |  |  |  |  |  |  |  |  | IC50 [1]: > 100000 nM; IC50 [2]: 0.4 ± 0.1 nM; Thrombocytopenia [3]: dose-dependent thrombocytopenia; IC50 [4]: 8500 ± 500 nM; IC50 [5]: 13500 ± 1500 nM |
| C[C@@H]1NC(=O)[C@@H]2CCCN2C(=O)[C@@H]2CSC(=N2)c2ccc(cc2)C(=O)NCCNC(=O)CSC[C@@H](C(=O)NCC(=O)N[C@@H](CCCCNC(=S)Nc2ccc3c(c2)C(=O)OC32c3ccc(O)cc3Oc3cc(O)ccc32)C(N)=O)NC(=O)[C@H](CCC(=O)O)NC(=O)[C@H](Cc2ccc(O)cc2)NC(=O)[C@H](CC(=O)O)NC(=O)[C@H](Cc2c[nH]c3ccccc23)NC(=O)CNC(=O)[C@H](Cc2ccc(O)cc2)NC(=O)[C@H](CCCNC(=N)N)NC1=O [cp1-FITC] (PARYGWDYECGK(FITC)-NH2; linker N-10 via X1) | relatively low penetration efficiency |  |  |  |  |  |  |  |  |
| cp6-FITC: FITC-labeled cp6; CPARYFWDYKCGK(FITC) (CPARYFWDYKCGK(FITC′); not fully specified (bridges); printed as CPARYFWDYKCGK(FITC); cysteine pairing not given here) | relatively low penetration efficiency |  |  |  |  |  |  |  |  |
| B1 |  |  |  |  |  |  |  |  | binding result [7]: binds |
| B2 |  | 1450 | 730 | 210 | 260 | 300 | 200 | 120 |  |
| B3 |  | 220 | 90 | 340 | 710 | 660 | 240 | 90 |  |
